We go through two molecules from patent publication US12466853B2, “Selective targeting of apoptosis proteins by structurally-stabilized and/or cysteine-reactive NOXA peptides” (priority 2017, dated 2025).

The target in one data set is T1, native BFL-1 (Homo sapiens, UniProt Q16548).
T1 construct: endogenous in cells; host or cells: A375P melanoma cells (A10); U937 AML cells (A12), lysates
T1 sequence (Q16548 1-175): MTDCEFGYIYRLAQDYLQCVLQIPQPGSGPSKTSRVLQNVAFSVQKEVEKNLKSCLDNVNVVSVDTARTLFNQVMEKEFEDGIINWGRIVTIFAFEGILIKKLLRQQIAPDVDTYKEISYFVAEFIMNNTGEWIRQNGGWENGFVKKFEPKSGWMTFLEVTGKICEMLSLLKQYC
The data set can be described thus: BFL-1 targeting in A375P lysates (streptavidin pulldown, BFL-1 western). The class given is binding. Conditions: biotinylated SAHB, compared to acetylated construct. How it is done: Cultured A375P and U937 cells were trypsinized or harvested, respectively, washed with PBS, and lysed by incubating with 1% CHAPS lysis buffer (1% CHAPS, 150 mM NaCl, 50 mM Tris pH 7.4, 100 μM DTT). The protein concentrations of the soluble fraction were measured using a BCA kit according to the manufacturer's instructions (Thermo Scientific). Lysate samples (1 mg) were incubated with vehicle or C-terminally biotinylated NOXA SAHBs (30 μM) overnight in 1% CHAPS lysis buffer at 4° C. Biotin capture was accomplished by incubating the mixture with high-capacity SA agarose (Thermo Scientific) for 2 hours at 4° C., followed by centrifugation and washing the pelleted beads three times with lysis buffer (1 mL). Bead-bound proteins were eluted by boiling in 10% SDS containing 10 mg/mL biotin for 10 minutes and then subjected to electrophoresis and western blotting using BFL-1 (Abcam, #125259) and MCL-1 (Rockland #600-401-394S) antibodies.

Another data set concerns the target T2, GST-MCL-1ΔNΔC (Homo sapiens, UniProt Q07820).
T2 construct: BCL-XLΔC (aa 1-212) and MCL-1ΔNΔC (aa 172-329) were cloned into the PGEX-4T-1; made in house; host or cells: Escherichia coli BL21(DE3)
The data set is described as follows: Streptavidin pulldown from recombinant protein mixture, MCL-1. It is filed as binding. Particulars: equimolar mixture of recombinant MCL-1, BCL-XL, BFL-1 and biotinylated SAHB, silver stain. As for the experimental part:
(§1) WT His-BFL-1ΔC, BCL-XLΔC (tagless), and GST-MCL-1ΔNΔC (1 μM each) were combined and incubated with 3 mM DTT in PBS for thirty minutes at room temperature. Mixtures were treated with vehicle or the indicated C-terminally biotinylated NOXA SAHB (1 μM) for four hours and were then added to 30 μL PBS-washed high-capacity streptavidin (SA) agarose beads (Thermo Fisher Pierce) and incubated with rotation at room temperature for two hours. The beads were then washed three times with NP-40 lysis buffer (1% NP-40, 50 mM Tris pH 8, 100 mM NaCl, 2.5 mM MgCl2) and three times with PBS. To elute bound protein, beads were boiled for ten minutes with 10% SDS containing 10 mg/mL biotin. After elution, samples were boiled with 3×LDS and 2M DTT for twenty minutes. Gel electrophoresis using a 12% Bis-Tris gel was conducted on inputs (2%) and eluates (5 μL) and gels were developed using the Pierce silver staining kit (Thermo Fisher).

A further data set relates to A375P cells. The data set is described as follows: LDH release assay, A375P cells. Particulars: 30 min. The class given is cell-based, human. How it is done:
After overnight incubation for A375P cells, or immediately upon plating for U937 cells, the cells were treated with the indicated concentrations of D-NA-NOXA SAHBs in DMEM or RPMI supplemented with 5% FBS for the indicated time period (30 min, 4 h). After plate centrifugation at 1,500 rpm (Thermo Scientific Sorvall Four-Place Swinging Bucket Rotor [75006445]; 478×g) for 5 min at 4° C., LDH release was quantified by transferring 100 μL of cell-culture medium to a clear plate (Corning), incubating with 100 μL of LDH reagent (Roche) for 30 min while shaking, and then measuring absorbance at 490 nm on a microplate reader (Spectramax M5, Molecular Devices).
In general terms: LDH in the medium is a marker of cell lysis.

In a further data set the target is T3, His-BFL-1ΔC C4S/C19S (Homo sapiens, UniProt Q16548, C19S/C4S).
T3 construct: Recombinant anti-apoptotic BFL-1ΔC (aa 1-151) and its cysteine to serine mutants were cloned into PET17b; made in house; host or cells: Escherichia coli LOBSTR BL21(DE3)
T3 sequence (Q16548 1-151 C4S/C19S): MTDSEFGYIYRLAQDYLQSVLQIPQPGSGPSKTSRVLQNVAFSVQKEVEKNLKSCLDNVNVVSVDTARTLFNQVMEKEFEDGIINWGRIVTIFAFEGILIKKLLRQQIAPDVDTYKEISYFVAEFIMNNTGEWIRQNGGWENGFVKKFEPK
The data set is described as follows: In vitro covalent conjugation assay (gel shift, Coomassie; intact mass spectrometry). It is filed as binding. The text has this:
To generate constructs with particular binding selectivities, cell penetrance properties, in vivo stability, and biological activity to enable the development of a drug for clinical use, staple scanning methodology was first used to generate a library of cysteine-reactive NOXA SAHBs to optimize binding potency, selectivity, and cellular penetrance. […] Staple scanning was achieved by sequential placement of (i, i+4) and (i, i+7) staples across the length of the peptide template, while keeping the N-terminal D-nipecotic acid (D-NA) reactive group constant (FIG. 2). We measured the reactivity of this NOXA library by incubating each peptide with BFL-1ΔC and detecting a higher molecular weight conjugate upon reducing and denaturing gel electrophoresis, and Coomassie staining (FIG. 3). Those peptides capable of covalent reaction with BFL-1 were advanced to cellular testing for peptide uptake. 293T cells transfected with HA-BFL-1ΔC C4S/C19S were treated with peptide (20 μM, 6 hr), and then harvested and lysates analyzed by anti-HA western blotting (FIG. 4). […] However, upon LDH release testing in A375P cells, this peptide was unexpectedly found to cause membrane disruption (FIG. 5). […]

A further data set concerns the target T4, His-BFL-1ΔC (Homo sapiens, UniProt Q16548).
T4 construct: Recombinant anti-apoptotic BFL-1ΔC (aa 1-151) and its cysteine to serine mutants were cloned into PET17b; made in house; host or cells: Escherichia coli LOBSTR BL21(DE3)
T4 sequence (Q16548 1-151): T3 sequence (Q16548 1-151 C4S/C19S) with S4C, S19C
The data set can be described thus: Streptavidin pulldown from recombinant protein mixture, BFL-1. The class given is binding. Conditions: equimolar mixture of recombinant MCL-1, BCL-XL, BFL-1 and biotinylated SAHB, silver stain; listed as D-NA-NOXA SAHB. How it is done:
as §1

In data set [1] the test system is BAX protein in U937 cells. The data set can be described thus: Dynamic assessment of BAX protein levels (western blot). It is filed as cell-based, human. Conditions: 5 μM. How it is done:
U937 cells were plated in 6-well plates (2×10^6 cells per well), treated with AZD0156 (5 μM), and the cells harvested and lysed at the indicated time points. Cell lysates were then subjected to electrophoresis and western blotting with BAX (Santa Cruz sc-493) and actin (Sigma #A1978) antibodies.

In data set [2] the test system is ATM S1981 and CHK2 S33/35 phosphorylation in U937 cells. The data set is described as follows: Phospho-signaling analysis (western blot). Particulars: 2 hr. It is filed as cell-based, human. The text has this: Cells were then washed with PBS, lysed in 1% CHAPS buffer, and the supernatant collected for protein concentration determination by BCA kit. Samples were subjected to electrophoresis and western analysis using 1:1000 dilutions of phospho-ATM (S1981, Cell Signaling, #4526), ATM (Abcam, #ab78), phospho-CHK2 (Ser33/35, Cell Signaling, #2665), CHK2 (Cell Signaling, #2662), and actin (Sigma #A1978) antibodies.

Numbering of substitutions follows the chain as printed. “Also recorded” adds a separate entry of the source. Positions of bridges follow the written chain, without caps; N, C: chain ends. Non-standard residues stand in square brackets, D forms with d. No end group written: not given here. R8 = C=CCCCCCC[C@@](C)(N)C(=O)O; S5 = C=CCCC[C@](C)(N)C(=O)O

T2 sequence (Q07820 172-329, stated change not applied): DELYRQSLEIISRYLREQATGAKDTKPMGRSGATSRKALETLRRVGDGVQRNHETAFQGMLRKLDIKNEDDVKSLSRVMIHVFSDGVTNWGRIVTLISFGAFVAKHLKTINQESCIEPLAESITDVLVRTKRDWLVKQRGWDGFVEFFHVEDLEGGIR

Take “*AT8LRRFGDXLNFRQ (AT[R8]LRRFGD[S5]LNFRQ; staple 3-10 (inferred); not fully specified (N-terminus); printed as *AT8LRRFGDXLNFRQ; also: N-terminal cap * is Ac or D-nipecotic acid, not settled) [NOXA-15]”: the “targeting of native BFL-1” value with native BFL-1 is “markedly enhanced BFL-1 pull down compared to Ac-NOXA SAHB”. For the same molecule, in the data set with GST-MCL-1ΔNΔC, the “MCL-1 binding / pull down” value is recorded as “similarly small amount of MCL-1”. The “LDH release (lytic activity)” value in the data set on A375P cells is “non-specific cell lysis”. In addition, the “BFL-1 crosslinking (increase in molecular weight)” value with His-BFL-1ΔC C4S/C19S (BFL-1 constructs bearing C55 (wild-type and C4S/C19S) vs C55S, C4S/C19S/C55S) is on record as “discrete increase in molecular weight”. Further, the “conversion of BFL-1 C4S/C19S to peptide adduct” value in the data set with His-BFL-1ΔC C4S/C19S (intact mass spectrometry) is recorded as “complete conversion”. For the same molecule, the “BFL-1 binding / pull down” value with His-BFL-1ΔC was “robust BFL-1 pull down; also recorded: substantial pull-down of BFL-1”.
On to `CN(C)CCCOc1ccc(-c2ccc3ncc4c(c3c2)n(C2CCOCC2)c(=O)n4C)cn1` [AZD0156], for which the “protein level of pro-apoptotic BAX” value in data set [1] was “time-dependent increase in the protein level of pro-apoptotic BAX”. For the same molecule, in data set [2], the “ATM auto-phosphorylation at S1981” value is on record as “dose-responsive inhibition of S1981 auto-phosphorylation” and the “CHK2 phosphorylation at S33/35” value is recorded as “potent blockade of CHK2 phosphorylation even at the lowest treatment dose”.
